# Where no end group is shown, it is not given here.
# Key:
# [1] = target: T1, Anti-PSMA Fab (SEQ ID NOs: 19, 20); assay: phage binding ELISA; biotinylated anti-PSMA Fab on neutravidin plate, wells pre-incubated with PSMA antigen as competitor, anti-M13-HRP detection
# T1 construct: Used biotinylated and captured on neutravidin coated plates; also called 006 PSMA Fab
# Description: (§1) Clonal phage were harvested as crude supernatants and screened via standard ELISAs. […] Prior to the addition of clonal phage. wells were incubated with blocking buffer and PSMA antigen or blocking buffer alone. Without washing or aspirating, clonal phage supernatants were then added to the wells and incubated for a short time. Wells were then washed followed by detection of bound phage using a horse radish conjugated anti-M13 antibody.
# [2] = target: T1, Anti-PSMA Fab (SEQ ID NOs: 19, 20); assay: phage binding ELISA; biotinylated anti-PSMA Fab on neutravidin plate, clonal phage supernatant, anti-M13-HRP detection
# Description: as §1
# [3] = target: T2, Anti-PSMA Fab (SEQ ID NOs: 19, 20); assay: phage binding ELISA; PSMA Fab coated wells pre-incubated with PSMA antigen as competitor, anti-M13 HRP detection
# T2 construct: also called 006 PSMA Fab
# Description: as §1
# [4] = target: T2, Anti-PSMA Fab (SEQ ID NOs: 19, 20); assay: phage binding ELISA; biotinylated PSMA Fab on neutravidin plate, clonal phage supernatant, anti-M13 HRP detection;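 further: wells were preincubated with blocking buffer either containing PSMA antigen or without it before crude phage supernatant was added, briefly incubated, then washed prior to detection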
# Description: as §1
# [5] = target: T3, Anti-PSMA Fab (SEQ ID NOs: 19, 20); assay: phage binding ELISA on captured anti-PSMA Fab; competitor: PSMA antigen
# T3 construct: In the phage ELISA the Fab was biotinylated and captured on neutravidin coated plates; also called 006 PSMA Fab
# Description: as §1
# [6] = target: T3, Anti-PSMA Fab (SEQ ID NOs: 19, 20); assay: phage binding ELISA; clonal phage on biotinylated anti-PSMA Fab captured on neutravidin, anti-M13 HRP detection
# Description: as §1
# [7] = target: T4, Anti-CD28 Fab (SEQ ID NOs: 696, 697); assay: phage binding ELISA; biotinylated anti-CD28 Fab on neutravidin plate, clonal phage supernatant, anti-M13 HRP detection;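 further: wells pretreated with blocking buffer, either plus or minus CD28 antigen, then given crude phage supernatant briefly without washing in between, then washed before anti-M13 HRP readout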
# T4 construct: In the phage ELISA the Fab was biotinylated and captured on neutravidin coated plates
# T4 sequence (VH, as listed by the source, chain 1 of 2): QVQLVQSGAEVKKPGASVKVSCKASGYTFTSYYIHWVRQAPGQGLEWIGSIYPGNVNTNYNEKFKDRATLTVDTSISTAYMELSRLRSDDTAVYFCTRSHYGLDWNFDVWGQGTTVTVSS
# T4 sequence (VL, as listed by the source, chain 2 of 2): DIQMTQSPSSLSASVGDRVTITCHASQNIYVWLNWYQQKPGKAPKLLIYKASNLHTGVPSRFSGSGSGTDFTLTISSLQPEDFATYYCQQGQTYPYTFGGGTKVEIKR
# Description: (§2) Clonal phage were harvested as crude supematants and screened via standard ELISAs. […] Prior to the addition of clonal phage, wells were incubated with blocking buffer and CD28 antigen or blocking buffer alone. Without washing or aspirating, clonal phage supematants were then added to the wells and incubated for a short time. Wells were then washed followed by detection of bound phage using a horse radish conjugated anti-M13 antibody.
# [8] = target: T4, Anti-CD28 Fab (SEQ ID NOs: 696, 697); assay: phage binding ELISA on plate-captured anti-CD28 Fab pre-incubated with CD28 antigen (competitor: CD28), anti-M13 HRP detection
# Description: as §2
Binder,Anti-PSMA Fab signal in the presence of PSMA [1],"Anti-PSMA Fab (SEQ ID NOs: 19, 20) signal [2]",Anti-PSMA Fab signal in the presence of PSMA [3],"Anti-PSMA Fab (SEQ ID NOs: 19, 20) signal [4]",other results
"SCFSFARLEVVPCD (cysteine pairing not given here; also: displayed on phage as pIII fusion, pIII sequence, linker and fusion order not given here, not shown: pIII coat protein of the bacteriophage to which the peptide is fused) [Phage-1721]",0.0555,1.26,–,–,–
VLKYCIPDWMCAGI (tested as clonal phage supernatant) [Phage-1816],–,–,0.0978,2.24,–
TTHVCIPSWMCSGF (tested as clonal phage supernatant) [Phage-1810],–,–,0.0668,2.15,–
MVKWCTPAWMCEML [Phage-1820],–,–,–,–,"Anti-PSMA Fab signal in the presence of PSMA [5]: 0.113; Anti-PSMA Fab (SEQ ID NOs: 19, 20) signal [6]: 2.41"
"DCFYAADIHWNYCN (cysteine pairing not given here; also: displayed on phage as pIII fusion, pIII sequence, linker and fusion order not given here, not shown: pIII coat protein of the bacteriophage to which the peptide is fused) [Phage-1719]",1.15,1.88,–,–,–
ITPICKPAWICSGF (tested as clonal phage supernatant) [Phage-1806],–,–,0.0631,2.2,–
"IECAYMTDQRFWCW (cysteine pairing not given here; also: fused to phage pIII (clonal phage display), not shown: pIII coat protein of the bacteriophage to which the peptide is fused) [Phage-1716]",0.066,1.93,–,–,–
"IRCVGEGHDLVCIF (cysteine pairing not given here; also: displayed on phage as pIII fusion, pIII sequence, linker and fusion order not given here, not shown: pIII coat protein of the bacteriophage to which the peptide is fused) [Phage-1712]",0.072,2.36,–,–,–
LEPLCVPRWMCVGF (tested as clonal phage supernatant) [Phage-1803],–,–,0.112,2.36,–
"HCLGPALGPVDGDC (cysteine pairing not given here; also: displayed on phage as pIII fusion, pIII sequence, linker and fusion order not given here, not shown: pIII coat protein of the bacteriophage to which the peptide is fused) [Phage-1717]",0.076,2.33,–,–,–
VEVKCFPLWFCVGL (tested as clonal phage supernatant) [Phage-1805],–,–,0.0923,2.23,–
VERLCTPAWMCHGF (tested as clonal phage supernatant) [Phage-1815],–,–,0.214,2.36,–
"SIPCIPRDWLCPIK (cysteine pairing not given here; also: displayed as fusion to phage pIII, linker and order of fusion not given here, not shown: pIII coat protein of the bacteriophage to which the peptide is fused) [Phage-1710]",0.096,1.89,–,–,–
ALKLCIPFWMCEGL [Phage-1819],–,–,–,–,"Anti-PSMA Fab signal in the presence of PSMA [5]: 0.129; Anti-PSMA Fab (SEQ ID NOs: 19, 20) signal [6]: 2.44"
ITPVCKPLWMCSGL (tested as clonal phage supernatant) [Phage-1804],–,–,0.0764,2.35,–
"PELRCVPFWMCSFN (cysteine pairing not given here; also: fused to phage pIII (clonal phage display), not shown: pIII coat protein of the bacteriophage to which the peptide is fused) [Phage-1709]",0.064,0.622,–,–,–
"SCGWLRGEEFGWWC (cysteine pairing not given here; also: displayed on phage as pIII fusion, pIII sequence, linker and fusion order not given here, also called Peptide-190; not shown: pIII coat protein of the bacteriophage to which the peptide is fused) [Phage-1718]",0.071,0.648,–,–,–

Binder,Anti-PSMA Fab signal in the presence of PSMA [1],"Anti-PSMA Fab (SEQ ID NOs: 19, 20) signal [2]",Anti-PSMA Fab signal in the presence of PSMA [3],"Anti-PSMA Fab (SEQ ID NOs: 19, 20) signal [4]",other results
IVVKCVPSWMCEGF (tested as clonal phage supernatant) [Phage-1812],–,–,0.102,2.4,–
"LMKWCTPRWMCAAE (cysteine pairing not given here; also: fused to phage pIII (clonal phage display), not shown: pIII coat protein of the bacteriophage to which the peptide is fused) [Phage-1707]",0.232,1.04,–,–,–
"MEYCSFHRFTCVLW (cysteine pairing not given here; also: displayed on phage as pIII fusion, pIII sequence, linker and fusion order not given here, not shown: pIII coat protein of the bacteriophage to which the peptide is fused) [Phage-1711]",0.117,1.88,–,–,–
"TCLRFADLAIIHCD (cysteine pairing not given here; also: displayed on phage as pIII fusion, pIII sequence, linker and fusion order not given here, also called Peptide-160; not shown: pIII coat protein of the bacteriophage to which the peptide is fused) [Phage-1722]",0.0697,1.82,–,–,–
"FVCWTFGEHIKVCR (cysteine pairing not given here; also: displayed on phage as pIII fusion, pIII sequence, linker and fusion order not given here, not shown: pIII coat protein of the bacteriophage to which the peptide is fused) [Phage-1714]",0.205,2.51,–,–,–
"IAVLCQPNWMCAGF (cysteine pairing not given here; also: fused to phage pIII (clonal phage display), also called Peptide-180; not shown: pIII coat protein of the bacteriophage to which the peptide is fused) [Phage-1708]",0.077,0.997,–,–,–
DCWWDSPYHWRVCL [Phage-1703],–,–,–,–,"Phage binding ELISA, Anti-CD28 Fab signal [7]: 0.57; Phage binding ELISA, Anti-CD28 Fab signal in the presence of CD28 [8]: 0.07"
TVAYCKPAWMCQGF (tested as clonal phage supernatant) [Phage-1813],–,–,0.108,2.37,–
PEHLCLPRWMCEGF (tested as clonal phage supernatant) [Phage-1808],–,–,0.135,1.78,–
"MERWCVPDWMCATF (cysteine pairing not given here; also: displayed on phage as pIII fusion, pIII sequence and linker not given here) [Phage-1818]",–,–,–,–,"Anti-PSMA Fab signal in the presence of PSMA [5]: 0.0578; Anti-PSMA Fab (SEQ ID NOs: 19, 20) signal [6]: 2.47"
YERACIPNWICEGF (tested as clonal phage supernatant) [Phage-1809],–,–,0.0842,1.03,–
TEVRCTPPWMCLGF (tested as clonal phage supernatant) [Phage-1814],–,–,0.0981,2.36,–
PERLCTPPWMCLGF [Phage-1817],–,–,–,–,"Anti-PSMA Fab signal in the presence of PSMA [5]: 0.0917; Anti-PSMA Fab (SEQ ID NOs: 19, 20) signal [6]: 2.24"
"ILCGLYEALVSECG (cysteine pairing not given here; also: displayed on phage as pIII fusion, pIII sequence, linker and fusion order not given here, not shown: pIII coat protein of the bacteriophage to which the peptide is fused) [Phage-1715]",0.063,2.49,–,–,–
VVIKCKPEWMCSGF (tested as clonal phage supernatant) [Phage-1807],–,–,0.0946,2.18,–
VNHWCVPTWMCAGF (tested as clonal phage supernatant) [Phage-1811],–,–,0.186,2.41,–
